# Experimental data as given in publication PMC4359790.
# Molecular target: bovine fetuin (bovine) (UniProt P12763)
# Test: Corning Epic label-free (resonant waveguide grating, Enspire reader)
row,Substance,response (change in wavelength) at 20 μg/ml rHA [pm]
1,recombinant hemagglutinin (rHA) of A/Brisbane/59/2007 (H1N1) (natural protein; modification not given),80
2,recombinant hemagglutinin (rHA) of A/Hangzhou/3/2013 (H7N9) (natural protein),80
3,recombinant hemagglutinin (rHA) of B/Brisbane/60/2008 (natural protein),140
